Experimental data reported in patent US20260201046A1 (BIO RAD LABORATORIES, published 2026).

Biological target: T1, recombinant mouse sIL-6Ra (20-357) (mouse, UniProt P22272 20-357)
T1 construct: range 20-357; The CD33 part of the plasmid name is not explained; also called recombinant sIL-6Ra; recombinant soluble IL-6Ra
T1 sequence: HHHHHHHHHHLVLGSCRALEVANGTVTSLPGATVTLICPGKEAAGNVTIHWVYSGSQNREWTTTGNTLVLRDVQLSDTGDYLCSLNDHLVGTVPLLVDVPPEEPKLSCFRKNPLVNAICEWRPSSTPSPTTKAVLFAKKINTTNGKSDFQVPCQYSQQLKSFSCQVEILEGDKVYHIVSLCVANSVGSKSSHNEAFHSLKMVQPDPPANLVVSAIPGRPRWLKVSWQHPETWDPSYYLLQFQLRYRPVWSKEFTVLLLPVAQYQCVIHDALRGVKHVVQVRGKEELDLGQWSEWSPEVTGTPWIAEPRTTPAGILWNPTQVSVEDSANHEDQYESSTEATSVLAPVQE
Test: SPR (Biacore), sIL-6Ra (20-357) amine-coupled to CM5 chip, antibody as analyte, 1:1 Langmuir fit
Description: The antigen-antibody affinity of four antibodies (rAb #22, rAb #52, rAb #62, a rat mAb RB01) were determined by an analysis service employing a surface plasmon resonance technology (Beijing Xtalbio Ltd. Co). It started with a directly immobilization of recombinant mouse sIL-6Ra (20-357) on a CM5 S sensor chip using Biacore® S200 machine. Approximately 27.8 resonance units (RU) of the sIL-6Ra (20-357) were immobilized at 25° C. with an amine coupling kit following the standard amine coupling procedure. The remaining active sites on the sensor chip were blocked with 1 M ethanolamine-HCl solution, pH 8.5 at a flow rate of 10 μL/min for 7 min, to finally reach 27.8 RU. The flow cells were washed with the injection of HBS-EP running buffer at 30 μL/min. For each antibody, a 2-fold serial dilution (0, 0.39 nM-200 nM) was injected at 15° C. to a channel with a flow rate of 30 μL/min for 120s and dissociation was followed for 720s. The curves were locally fitted with Biacore®8K analysis software (BIAevaluation) using a 1:1 Langmuir binding model.

B1: rAb #52 (antibody, V domains shown)
VH: QSLEESGGDLVKPGASLTLACTASGFSFSSGYYMCWVRQAPGKGLEWIGCIYTGSDTTYYASWAKGRFTISETSSTAATLQMTSLTAADTATYFCARDLGSRGNLWGPGTLVTVSS
VL: DIVMTQTPSSVSAAVGDTVTINCQASENIYSFLTWYQQKPGQRPKLLIYRASTLASGVPSRFKGSGSGTDFTLTISDLECADAATYYCQRNAYSSWAFGGGTEVVVK
notes: also called Antibody 52; recombinant rabbit monoclonal antibody from fusion clone #52
- Kd: 9.43 pM
